Source: paper PMC10532679 (Life, 2023)

Legend:
[1] = biological target: T1, wild-type H6-PKA-Cα, untreated (alpha isoform of the catalytic subunit of cAMP-dependent protein kinase) (murine, UniProt P05132 2-351); experiment: SPR; OpenSPR-XT; CREBtide coupled to a carboxyl sensor; PKA-Cα flowed at 75 µL/min; 1X HBS-P+, 10 mM MgCl2, 0.01% NP-40, 0.5% BSA, 10 µM AMP-PNP, pH 7.4; kinetics analysis; apparent; conditions: both partners purified
[2] = biological target: T1, wild-type H6-PKA-Cα, untreated (alpha …); experiment: SPR; OpenSPR-XT; CREBtide coupled (EDC/sulfo-NHS) to a carboxyl sensor, surface blocked with monomeric streptavidin and ethanolamine; PKA-Cα 0.078–10 µM flowed at 20 µL/min; 1X HBS-P+, 10 mM MgCl2, 0.01% NP-40, 0.5% BSA, 10 µM AMP-PNP, pH 7.4; equilibrium analysis; apparent; conditions: both partners purified

Kd [1]: 2.8 ± 0.75 µM | Kd [2]: 3.3 ± 1 µM
B1: CREBtide (peptide)
peptide: KRREILSRRPSYR
notes: Coupled by EDC/sulfo-NHS to the carboxyl sensor in SPR; source: bought: Alfa Aesar
